Experimental data published in paper doi:10.1101/2025.11.02.686180.
Where two headings read alike, the source gives them in different places.

Columns and labels:
[1] = molecular target: T1, SARS-CoV-2 nucleocapsid protein (NP) (SARS-CoV-2, UniProt P0DTC9 1-419); experiment: MST
[2] = molecular target: T1, SARS-CoV-2 nucleocapsid protein (NP); experiment: MST; remark: listed apart in the source
[3] = molecular target: T2, Tau441 (longest isoform of tau) (human, UniProt P10636-8 1-441); experiment: competition
thrombin (Tb) [4] = molecular target: T3, thrombin (Tb) (UniProt P00734;P00734 328-363;364-622); experiment: 0.1 ng/mL thrombin
thrombin (Tb) [5] = molecular target: T3, thrombin (Tb); experiment: thrombin 0.02-20 pg/mL in water
[6] = molecular target: T2, Tau441 (longest isoform of tau); experiment: competition; remark: listed apart in the source

B1: Nor-Apt (ssDNA)
DNA: GCTGGATGTCGCTTACGACAATATTCCTTAGGGGCACCGCTACATTGACACATCCAGC
modifications: 3' C3 spacer
[1]
  binding result: binds

## CGCTTACGACAATATTCCTTAGGGGCACCGCTACATTGACACATCCAGC (ssDNA, 3' C3 spacer) [N9-Apt]
[2]
  binding signal: > 5 fold affinity vs Nor-Apt
[3]
  binding result: no binding
Thrombin (Tb) [4]
  binding result: no binding

## AGTCCGTGGTAGGGCAGGTTGGGGTGACT (ssDNA, 3' C3 spacer) [thrombin aptamer 29 nt]
Thrombin (Tb) [5]
  binding result: binds

## CCTGTCAGGTCTTTGACGAGGCTTTTCTTC (ssDNA, 3' C3 spacer) [Tau aptamer (core)]
[6]
  binding result: binds
